Measured values reported in US20240277861A1, “ANTI-HEPATITIS B VIRUS AGENT TARGETING HOST FACTOR LIPG” (PUROTECH BIO, INC., priority 2021, published 2024).

T1: binding between preS1 and heparan sulfate enhanced by LIPG (Homo sapiens, UniProt Q9Y5X9)
T1 construct: FLAG
T1 sequence (Q9Y5X9 21-500): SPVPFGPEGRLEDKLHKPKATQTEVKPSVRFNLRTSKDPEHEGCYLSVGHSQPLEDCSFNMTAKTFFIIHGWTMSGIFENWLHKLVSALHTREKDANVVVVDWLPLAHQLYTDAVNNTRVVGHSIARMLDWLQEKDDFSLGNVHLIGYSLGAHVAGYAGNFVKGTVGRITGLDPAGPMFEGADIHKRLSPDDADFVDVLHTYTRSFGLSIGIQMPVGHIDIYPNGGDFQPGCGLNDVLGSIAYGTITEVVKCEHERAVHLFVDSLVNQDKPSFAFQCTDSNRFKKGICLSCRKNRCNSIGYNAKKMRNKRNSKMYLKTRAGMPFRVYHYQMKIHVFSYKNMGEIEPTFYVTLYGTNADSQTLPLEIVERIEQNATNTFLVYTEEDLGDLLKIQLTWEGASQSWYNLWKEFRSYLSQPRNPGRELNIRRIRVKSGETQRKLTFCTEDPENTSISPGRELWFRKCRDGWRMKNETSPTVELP

B1: FLAG-LIPG: purified form of FLAG-tagged LIPG added to PXB cells or plate (protein)
chain: SPVPFGPEGRLEDKLHKPKATQTEVKPSVRFNLRTSKDPEHEGCYLSVGHSQPLEDCSFNMTAKTFFIIHGWTMSGIFENWLHKLVSALHTREKDANVVVVDWLPLAHQLYTDAVNNTRVVGHSIARMLDWLQEKDDFSLGNVHLIGYSLGAHVAGYAGNFVKGTVGRITGLDPAGPMFEGADIHKRLSPDDADFVDVLHTYTRSFGLSIGIQMPVGHIDIYPNGGDFQPGCGLNDVLGSIAYGTITEVVKCEHERAVHLFVDSLVNQDKPSFAFQCTDSNRFKKGICLSCRKNRCNSIGYNAKKMRNKRNSKMYLKTRAGMPFRVYHYQMKIHVFSYKNMGEIEPTFYVTLYGTNADSQTLPLEIVERIEQNATNTFLVYTEEDLGDLLKIQLTWEGASQSWYNLWKEFRSYLSQPRNPGRELNIRRIRVKSGETQRKLTFCTEDPENTSISPGRELWFRKCRDGWRMKNETSPTVELPDYKDDDDK

Assays:
HBV = conditions: in vitro cell system; cited from earlier work
[1] = target: T1, binding between preS1 and heparan sulfate enhanced by LIPG; assay: Plate assay of binding between preS1 peptide and immobilized heparan sulfate with FLAG-LIPG; conditions: 10, 25, or 50 fmol of FLAG-LIPG per well
Procedure: FIG. 22-2 The effect of LIPG to promote HBV entry into cells and the effect of a LIPG-binding peptide and Netrin-1 to inhibit HBV entry into cells. E: A biotin-labeled form of heparan sulfate was added to a streptavidin-coated 96 well plate and left overnight at 4° C. to allow the heparan sulfate to bind to the plate. This plate was washed with TBS, and 10, 25, or 50 fmol of FLAG-LIPG was then added to each well to allow the reaction to proceed at room temperature for 2 hours. After the plate was washed, 10 or 100 nmol of LIPG-binding peptide LIPH4-NTNBS, LIPH4-23S, LIPH4-NTNBSA, or LIPH4-23SA was added to each well to allow the treatment to proceed at room temperature for 1 hour. Subsequently, the plate was washed, and 0.1 nmol of preS1-TMR was added to each well to allow the treatment to proceed at room temperature for another 1 hour. The plate was washed and then placed in a plate reader to measure the fluorescence of TMR.
Furthermore, PXB cells treated with Netrin-1 were further treated with FLAG-LIPG, and the uptake of the preS1 peptide was examined, to find that the enhancement of the uptake of the preS1 peptide by FLAG-LIPG was suppressed by Netrin-1 (FIG. 22D). In addition, a biotin-labeled heparan sulfate was immobilized on a streptavidin-coated plate and the preS1 peptide was added thereto to study the binding between the preS1 region of HBV and heparan sulfate present on the cell surface.

[2] = system: LIPG-mediated HBV attachment and entry (preS1 peptide) in PXB cells; assay: Uptake of TMR-labeled preS1 peptide into PXB cells (confocal microscopy); type: cell-based, human; conditions: PXB cells treated with FLAG-LIPG 3 hours
Procedure: FIG. 22-1 The effect of LIPG to promote HBV entry into cells and the effect of a LIPG-binding peptide and Netrin-1 to inhibit HBV entry into cells. A: PXB cells were mixed with a purified form of FLAG-LIPG and incubated for 3 hours. The resulting cells were mixed with a preS1 peptide fluorescently labeled with TMR (tetramethylrhodamine) and incubated for 30 minutes, and then observed with a confocal microscope. The fluorescence of the preS1 peptide was detected, and the fluorescence intensity was normalized to the DAPI fluorescence intensity. p<0.05. B: PXB cells were treated with 100 nM LIPG-binding peptide LIPH4-23S or LIPH4-NTNBS for 15 hours, and a purified form of FLAG-LIPG was added thereto, followed by incubation for 3 hours. The resulting cells were mixed with a preS1 peptide fluorescently labeled with TMR and incubated for 30 minutes, and then observed with a confocal microscope. The fluorescence of the preS1 peptide was detected, and the fluorescence intensity was normalized to the DAPI fluorescence intensity. *:p<0.05. C: PXB cells were mixed with Netrin-1 and incubated for 3 hours. […] The fluorescence of the preS1 peptide was detected, and the fluorescence intensity was normalized to the DAPI fluorescence intensity. *:p<0.05. […] The fluorescence of the preS1 peptide was detected, and the fluorescence intensity was normalized to the DAPI fluorescence intensity. […]

Molecule | HBV infection (HBV) | binding between preS1 and heparan sulfate (TMR fluorescence) [1] | preS1 peptide present in the cells [2]
COc1cc2ncnc(Nc3ccc(F)c(Cl)c3)c2cc1OCCCN1CCOCC1 [gefitinib] | reduces HBV infection |  | 
B1 |  | enhanced by FLAG-LIPG in a concentration-dependent manner | increased by FLAG-LIPG in a concentration-dependent manner
